Type: physicochemical
Conditions: all pH values (3, 5, 7 and 9); 20 °C; over eight days; HPLC-MSMS; detection limit = 0.05%

FFRKSIINFEKL [compound 3]
Formation of α-GalCer (background hydrolysis, linker collapse): No formation of α-GalCer was detected

From article PMC5500832 (Chemical Science, 2015)
